The source of these data is paper PMC4188797.

The experiment concerns the target metabotropic glutamate receptor 1 splice variant mGluR1a (endogenous, rat brain) (rat (endogenous in rat brain)), P23385. The experiment in a line: SDS-PAGE and immunoblot of dimer bands in subcellular fractions. To be noted: remark: other sources report otherwise. On the technique in general: Immunoblotting shows a protein as a band on a membrane.

B1: metabotropic glutamate receptor 1 splice variant mGluR1a (endogenous, rat brain), P23385 19-1199 (receptor)
chain: LPRMPDRKVLLAGASSQRSVARMDGDVIIGALFSVHHQPPAEKVPERKCGEIREQYGIQRVEAMFHTLDKINADPVLLPNITLGSEIRDSCWHSSVALEQSIEFIRDSLISIRDEKDGLNRCLPDGQTLPPGRTKKPIAGVIGPGSSSVAIQVQNLLQLFDIPQIAYSATSIDLSDKTLYKYFLRVVPSDTLQARAMLDIVKRYNWTYVSAVHTEGNYGESGMDAFKELAAQEGLCIAHSDKIYSNAGEKSFDRLLRKLRERLPKARVVVCFCEGMTVRGLLSAMRRLGVVGEFSLIGSDGWADRDEVIEGYEVEANGGITIKLQSPEVRSFDDYFLKLRLDTNTRNPWFPEFWQHRFQCRLPGHLLENPNFKKVCTGNESLEENYVQDSKMGFVINAIYAMAHGLQNMHHALCPGHVGLCDAMKPIDGRKLLDFLIKSSFVGVSGEEVWFDEKGDAPGRYDIMNLQYTEANRYDYVHVGTWHEGVLNIDDYKIQMNKSGMVRSVCSEPCLKGQIKVIRKGEVSCCWICTACKENEFVQDEFTCRACDLGWWPNAELTGCEPIPVRYLEWSDIESIIAIAFSCLGILVTLFVTLIFVLYRDTPVVKSSSRELCYIILAGIFLGYVCPFTLIAKPTTTSCYLQRLLVGLSSAMCYSALVTKTNRIARILAGSKKKICTRKPRFMSAWAQVIIASILISVQLTLVVTLIIMEPPMPILSYPSIKEVYLICNTSNLGVVAPVGYNGLLIMSCTYYAFKTRNVPANFNEAKYIAFTMYTTCIIWLAFVPIYFGSNYKIITTCFAVSLSVTVALGCMFTPKMYIIIAKPERNVRSAFTTSDVVRMHVGDGKLPCRSNTFLNIFRRKKPGAGNANSNGKSVSWSEPGGRQAPKGQHVWQRLSVHVKTNETACNQTAVIKPLTKSYQGSGKSLTFSDASTKTLYNVEEEDNTPSAHFSPPSSPSMVVHRRGPPVATTPPLPPHLTAEETPLFLADSVIPKGLPPPLPQQQPQQPPPQQPPQQPKSLMDQLQGVVTNFGSGIPDFHAVLAGPGTPGNSLRSLYPPPPPPQHLQMLPLHLSTFQEESISPPGEDIDDDSERFKLLQEFVYEREGNTEEDELEEEEDLPTASKLTPEDSPALTPPSPFRDSVASGSSVPSSPVSESVLCTPPNVTYASVILRDYKQSSSTL
As usually defined, the stoichiometry N is the number of molecules, sites or subunits per partner or assembly. B1 yielded a stoichiometry N of 2.
